This data set can be described thus: soluble on expression in E. coli; label from the status in PepcDB or PDB records.
In the case of “MSLTRFQDRQEGERVVDFYMIRDREVKRASNGTDYLNLTLERKLEYIPARLWDATEQHKQALIRRAVVKVDGVVTVYRQQKQLNIQRIRLATDEDPVTVAELISKPGLSREELWHELRMIIEEIQDETLLKLVKTMLGKKEIRERFTTIPASKATHHPYYAGLLEHVVEVCQSILQLSLIYGTINRDVVIAAAILHDIGKVAALHDPFAPEYTDEGEMIGHVVLGVELINQTAQELGISMDEPILLAVKHCILSQREQDEGATSFVYGPKTKEAILLAALDQLNGRLNSFELMASHAEERWTYSPLFKRKMFTPDNDEGHHHHHH”, the “soluble on expression in E. coli” value was “soluble”.
For the sequence “MSLTRQSLQQAAESRRSIYSLNKNLPVGKDEVVQIVEHAVLHTPSSFNSQSARVVVLFGEEHDKVWQFVEDALRAVVPADSFEPTAQKLNLFKAGAATILFYEDQNVVKGLQEQFPAYAANFPVWADQANAMVQYAVWTTLAAVGVGANLQHYNPLPDAAIAKAWNIPENWLLRAQMVIGGIEGAAGEKTFEPVAERLKVFGAEGGSHHHHHH”, the “soluble on expression in E. coli” value is “soluble”.
Next, “MSLTRRDFAGRSALTGAGVVLAGSVGALATAPNALASTDTDSVGAEHDGHDHHHGHGHGGVGYGPLLPDPDGILALPAGFRYEIITYSGRTKLESGEYTPSNHDGTAAFDGPRGTTLLVNNHELGGHRDDWPHPVPLTEGLVYDPAAAGGCTVVEVRRGGHVAEWVGIAGTATNCAGGSTPWGTWLTCEETEDRAGEEGMTKDHGYVFEVDPEDRRANREPKPVKALGRYAHEAVVIDPKRGHAYLTEDASGPNGLLYRWTPPEHFRHGRGRLRTLADDAGVLQAFKCFDSGGKFVDDLSRATRTGTVYGVDWVDVPDRDAQTTSVRKQFAAGEVTRARKLEGMWWADGGAYVVSSFARDESPGRPHDGQVWFYDPKRRTLTLKVLLGVNADPSADGAFDGPDNITVSPYGGLVIAEDGDGVQHLFGATDSGRTYPIARNELNLGTEDDPEYSEFTGVTFSPDGRTLYANIQTPGIMLAITGPWKRQKRR”: “soluble”.
Turning to “MSLTSFSRLNTNLLQLKSKHSSDNAQHLYVNGNVGSSTEEITSVEYSKLLQLKLIDESLSFQWCNNYTVLSIYSMKETFARKTIYIHFPKPLLNKWFTAVVYESSETTSNLCFDVILKDGIFINLSLPIDFILSRTRQNEYPENWLKVLNPYDFSVRPPQCLFHVDNTFSVVFLKDGGLLGLKRIPLEILNDFELQPVLFNDSSYFQSFTRMFSKYDNHNSAVVSAELLNDKYLVTLTNDATIKIWDLTTYQLNAHFDLKEKNQQVNYGAAGKYMIICGSLLFVYLPAGNGSFQVIQLENTHSSRISFKPLNVNIPLNLSSYSIWSLIDIQLVKSSIVKQSGLNLVLLWKSNTVTKLQLLSFEDSLYSSYKWIDGNSTYLSDLLDDSDLITNGNMEKALLNLKSHYSQSTYDDAQKILNKNNVMVQINDPHNQDYLNNLEALLKELHKQYQEPSTLTILDDEIIVVNSLHMYHHSTYKLDSQLETIFFNIFERKEPSSQLELFLNILHGFSTTITSETLNKISEKFLDMVNGSINPSLSLKNKITIVFQDCLTNGFQSANLSKLLENLNSIDVVEVLSEFIHCDLKVGAFSVIDLLDTDIFLSVLSMESLKQTLSIMDKFIIDILLVFTIVDINYEVFAEKLSKLITLHFNISLWLQVYQIDKLLAISETFGHVTKYNYGAQLKSYSDITDFTTLMVGFVKNSEGHHHHHH”, the “soluble on expression in E. coli” value is reported as “not soluble”.
Next, “MSLTSPKRNIVGFTIVNDKHEFAQRLINAFKAEAKANKYEALVATSQNSRISEREQILEFVHLKVDAIFITTLDDVYIGSAIEEAKKAGIPVFAIDRMIRSDAVVSSITSNNQMIGEQLASYIKNELIKQTGRSTGRIVEITGTANVYTTNERHRGFLKGIENEPTLSIVDSVSGNYDPVTSERVMRQVIDSGIPFDAVYCHNDDIAMGVLEALKKAKISGKIVVGIDGNRAILEAVDMKSMDATVVQSAEEMMKVAFSALKLHTKNKKIPDRFYTYSYLYDGSREGHHHHHH”: “soluble”; “MSLTVIRKQDVISSVADALQYISYYHPLDFVKALEKAYQREESQAAKDSIAQILINSRMSAEGHRPICQDTGIVTCFVNIGMGVQWDSTDMTVQQMVDEGVRQAYTNPDNPLRASVLMDPAGKRINTKDNTPAVVHINMVPGDKVDIQIAAKGGGSENKTKMVMLNPSDDIAEWVEKTVPLMGAGWCPPGMLGIGIGGTAEKAAVLAKEALMEHIDIHELIERGPQNAEEELRLDIFNRVNKLGIGAQGLGGLTTVVDVKIKSAPTHAASKPVCMIPNCAATRHVHFTLDGSGPAQLTPPKLEDWPQITWEAGANTRRVNLDNITREEIQTWKTGETVLLSGKILTGRDAAHKRIQTMLQKGEKLPDSVDLKDKFIYYVGPVDAVGDEVVGPAGPTTSTRMDKFTDMMLEEVGVMGMIGKAERGPATVESIKKHKAVYLMAVGGAAYLVAKAIKKARVVAFEDLGMEAIYEFEVEDMPVTVAVDSTGANAHQIGPDTWRVKIAEAAKEGGSHHHHHH”: “soluble”; “MSLTYLNHILVIEDDLDAAESLSDMLSIDGFQITTTASVQDAMELLESQRFGVILTDRHLPDGLIEHRLQEILEVSSKTPVIVVTGYSDLQAVILAFRQGISDYVIKPIIPEDLIQTVRRILERRVLEQHLQIEHAFAERIQSTAEAIILVIDFDGRVIHFNRFFTELTGWAQGDLIGENWFDRCIYPEDRDRLINVCDTMSRTDRYRGCTNRIRCKNGEAREIRWSNSKWSEADGGQQFILAIGIDVSDLAEATQRAVRAERLAAIGETVAALAHESRNAIQRINAASEVLAINIRGNVDSEEELSVVQRAASDLSTLLESVRAFAAPIQAKLECADLREIWRRSWDDLECKRSGRDVELVENATSCLHDVKVDVCRMEQLFRNLFLNALEASEGPVRIEIDCECNDEMVCLKVTDDGPGLTAEQSAHLFEPFYTTKPTGTGLGMPICQRIVEAHGGTIAAGNHLNGTEVAICVPRVKAAVLVSEGHHHHHH”: “soluble”.
Take “MSLVAVRSAHINKAGEFDPEKWIASLGITSQKSCECLAETWAYCLQQTQGHPDASLLLWRGVEMVEILSTLSMDIDTLRAALLFPLADANVVSEDVLRESVGKSVVNLIHGVRDMAAIRQLKATHTDSVSSEQVDNVRRMLLAMVDDFRCVVIKLAERIAHLREVKDAPEDERVLAAKECTNIYAPLANRLGIGQLKWELEDYCFRYLHPTEYKRIAKLLHERRLDREHYIEEFVGHLRAEMKAEGVKAEVYGRPKHIYSIWRKMQKKNLAFDELFDVRAVRIVAERLQDCYAALGIVHTHYRHLPDEKDDYVANPKPNGYQSIHTVVLGPGGKTVEIQIRTKQMHEDAELGVAAHWKYKEGAAAGGARSGHEDRIAWLRKLIAWQEEMADSGEMLDEVRSQVFDDRVYVFTPKGDVVDLPAGSTPLDFAYHIHSDVGHRCIGAKIGGRIVPFTYQLQMGDQIEIITQKQPNPSRDWLNPNLGYVTTSRGRSKIHAWFRKQDRDKNILAGRQILDDELEHLGISLKEAEKHLLPRYNFNDVDELLAAIGGGDIRLNQMVNFLQSQFNKPSAEEQDAAALKQLQQKSYTPQNRSKDNGRVVVEGVGNLMHHIARCCQPIPGDEIVGFITQGRGISVHRADCEQLAELRSHAPERIVDAVWGESYSAGYSLVVRVVANDRSGLLRDITTILANEKVNVLGVASRSDTKQQLATIDMTIEIYNLQVLGRVLGKLNQVPDVIDARRLHGSEGHHHHHH”: the “soluble on expression in E. coli” value was “not soluble”.
Turning to “MSLVGDVYLGVGSASSEYWAAYIEGAKAVASSLGKDVNVIPSEFDGQKLLEQFGAVFAAGCEDCVVTVDPASNAFTKAMIERADTAGAKYVNLWNRPDEIHPWDTVPNTWIANISFDGVDSGYQNGMALCNALGGKGNIVALNGIPDNPPAKQRIAGLHKALQECPGLKLLDTQVGNWDQTQGQSITRAWLAKYGDELNGIFSANDGMALGAVAALREKGLVGKILVTGSDGSSDVIKLIEKGEMLSTMHIDGYVQGAYAVALAAAAVKGDIKMDELKQDQRDFFLSQTLVTKDNAASVLNSKKDASQFSYDALKGNFWAASVGQIPAGANEGHHHHHH”, the “soluble on expression in E. coli” value is “soluble”.
On to “MSLVIGYMESNKNNSKWKDILMDGEILQIENIFNGSHNKKNNGLIIFKIKDKLGNVNKLTFVSKSADMSIQVEKAERLIKKGSYYRHFKGNYYKVLYIAENSEDKEKVVVYQAMYGEKKVYVRPFKMFISKVDHCKYPEIEQEYRFMSISELENQFGTSVVASWNMQNIYVDHTIEGHHHHHH”, for which the “soluble on expression in E. coli” value is reported as “not soluble”.
With “MSLVPARVFSCTILVDFQTEDQDTMCNLLRVQWTITPRTAPQPWLACNGCGDLRAFQASDKIRLNANGRKLDAWLIYRCLICDKSWNRPIFERQNVCDISPPVLEALQCNDPQWIRAETFNLEALRRKSQRIDEFPDFDIEKRIRDEPTDWAAAEIDLTVPFPASIRLDRLLASELGLSRSMLQKLHDGGQIRAQSDLLRRRLRNGTRIVIECGDGLDRERFWKPAVRGLEGHHHHHH”, the “soluble on expression in E. coli” value was “not soluble”.
In the case of “MSLVQWISPLDNSIVIASKVKILRNIKGIKFTKLLNEEEFNDLLSMVLGRLKEIDILDKCYVVKLKDGEEKIIDYYKENFGLIKYFENKDNLIFIMNKNGEFNILLNEEEHIGIECTNSGLSLREVYSKVDNLDDLIEEKIHYSFDSELGYLTSNIKNLGTALRAKVFIHLPLLSSNNLIRIIKNALKEEGITLKSIYNSGNKDVGNIYEVSNIKTLGMSEKDILDSLISITNKLILREKNQRDNLSKDEYIELKDDILRSLGVLRNTYSIDREGHHHHHH”, the “soluble on expression in E. coli” value was “not soluble”.
For “MSLYENNVKDTKDFYNDIGHISWSVAPSQHYHVGIFELEKDSMEDAQNRTVEYMARKVAASDLDVLLDIGCGSGLTAVQISKKENCKIVGINISEKQLAIGKKLISKEKINSRVKLMNMDAHQLNFKSGMFDGAYALESIMHMNREKVLSEVHRVLKNGAPFSLCDWYVKKSLTPVEKRFLETITLGKYITKEQYFSLYQTQNFMDIEIEEWSNKILPTYKYWTTITDEMKEKLPDHLLYVIEENSKVLSDIAIEKLGYLQVNGIKREGHHHHHH”, the “soluble on expression in E. coli” value is “soluble”.
“MSLYSENDISNSIKNGILYLEDPVNHEWYPHYFVLTSSKIYYSEETSSDQGNEDEEEPKEVSSSTELHSNEKWFHGKLGAGRDGRHIAERLLTEYCIETGAPDGSFLVRESETFVGDYTLSFWRNGKVQHCRIHSRQDAGTPKFFLTDNLVFDSLYDLITHYQQVPLRCNEFEMRLSEPVPQTNAHESKEWYHASLTRAQAEHMLMRVPRDGAFLVRKRNEPNSYAISFRAEGKIKHCRVQQEGQTVMLGNSEFDSLVDLISYYEKHPLYRKMKLRYPINEEALEKIGTAEPDYGALYEGRNPGFYVEANPMPTFKCAVKALFDYKAQREDELTFIKSAIIQNVEKQEGGWWRGDYGGKKQLWFPSNYVEEMVNEGHHHHHH”: the “soluble on expression in E. coli” value is “soluble”.
Then “MSMPETKTRSVALTPPLHTPRLLLLPLQLEDAPAMQSLFNHWEVVRYLTHHVPWPYPEGEALRYLREDALPAMQDGEEWHWSIRLRSQQDRLIGSACMMDEQDNNRGFWLSPAYQGLGLMSEVCVAIDRFWFETLKRPVLRVAKCALNEASCRLSQREGMRLVTVQESQFVCGTTQEQLWELTRDEWRANNGG”, with “not soluble”.
With “MSMPRYYEYRHVVGFEETNLVGNVYYVNYLRWQGRCREMFLYEHAPEILDELRADLKLFTLKAECEFFAELAPFDRLAVRMRLVELTQTQMELGFDYLRLGGDDLLVARGRQRIACMRGPNGRTEPVRVPAGLVRAFAPFRSATVGQ”, the “soluble on expression in E. coli” value is “soluble”.
For “MSMSQSRAVQRSSSPNEDRGENQLVVYDLKGNDDTEEEVLPVQSQPLSSRTQCPSIGAFTVQCASCFKWRLMPSMQKYEEIREQLLENPFFCDTAREWKPDISCDVPADIYQDGTRLWAIDKPNISRPPAGWQRLLRIRGEGGTRFADVYYVAPSGKKLRSTVEVQKYLNDNSEYIGEGVKLSQFSFQIPKPLQDDYVRKRPARLLDSIDNTNTPVAKEANPLAWISPDDHISLQLGTPTESGLNNSHYQPSKKKKTSTLSIFGSNDELADR”, the “soluble on expression in E. coli” value is listed as “soluble”.
